Measured values as given in paper PMC11970713 (The FEBS journal, 2024).

Target: the molecule itself
Test: native gel or EMSA

B1: Full length wild-type LpCopA (copper-transporting P1B-1-ATPase from Legionella pneumophila, Lpg1024) (natural protein)
chain: not shown
stoichiometry N: 2
